Measured values published in patent publication US20200181597A1, “Composition and Application of Arginine-depleting Agents for Cancer, Obesity, Metabolic Disorders, and Related Complications and Comorbidities” (THE HONG KONG POLYTECHNIC UNIVERSITY, priority 2018, published 2020).

System: mouse 3T3-L1 preadipocytes
Assay: 3T3-L1 preadipocyte differentiation (oil red O, qRT-PCR)
Assay type: cell-based
Description: FIG. 23 illustrates that arginine depletion by adding N-ABD094-rhArg (SEQ ID NO: 50) (rhArg), bovine arginase or native arginine deiminase (ADI) to the culture medium, or using arginine-free medium inhibited the differentiation of mouse 3T3-L1 preadipocytes into adipocytes. […] (*The culture medium contains 0.4 mM L-arginine and can be converted into 0.4 mM L-ornithine and 0.4 mM urea by arginase, or 0.4 mM L-citrulline by ADI.). Cells grown in culture medium without addition of arginine depleting agents or metabolic products of arginase/ADI served as the control. Lipids in cells were stained with oil red O at 6 days after exposure to specific differentiation-inducing factors added to the medium.
FIG. 24 illustrates that N-ABD094-rhArg (SEQ ID NO: 50) could suppress adipogenic and lipogenic genes in 3T3-L1 preadipocytes. Mouse 3T3-L1 preadipocytes were cultured for 6 days in medium supplemented with specific factors to induce differentiation into adipocytes (differentiated). Cells grown in medium without these factors remained undifferentiated. The medium was added with 2U/mL N-ABD094-rhArg (SEQ ID NO: 50) (rhArg). Cells grown in medium without the addition of N-ABD094-rhArg served as the control. The mRNA expression levels of several crucial (A) transcriptional regulators of adipogenesis, and (B) enzymes in lipogenic pathways were determined by real-time qRT-PCR, and expressed relative to the undifferentiated (control) group, which is set as 1. *P<0.05, one-way ANOVA followed by Fisher's LSD. Data are expressed as mean±SEM, n=3 for each group.
FIG. 25 illustrates the response of 3T3-L1 preadipocytes to various concentrations of arginine Mouse 3T3-L1 preadipocytes were cultured in arginine-free medium with or without addition of varying concentrations of L-arginine for 6 days. Cells cultured in normal arginine-containing medium supplemented with differentiation inducing factors served as the positive (+ve) control of differentiation, while cells cultured in normal arginine-containing medium without supplementation of differentiation inducing factors served as the negative (−Ve) control of differentiation. One group of cells was cultured in normal arginine-containing medium supplemented with differentiation inducing factors and treated with 5U/mL N-ABD094-rhArg (SEQ ID NO: 50) (rhArg) to inhibit differentiation. (A) Cells were stained for lipids with oil red O, and staining intensity was quantified by measuring optical density, which is expressed as the percentage against the +ve control group. (B) The mRNA levels of several crucial lipogenesis related genes are expressed relative to cells cultured in arginine-free medium, which is set as 1. Data are expressed as mean±SEM, n=3 for each group.
To test the effect of N-ABD094-rhArg (SEQ ID NO: 50) on fat cells, mouse 3T3-L1 preadipocytes were used, which are commonly employed as cell-based model for studying adipogenesis [Green and Meuth, 1974, Cell 3:127-133].

- mRNA levels of adipogenic transcription factors and lipogenic enzymes (2U/mL, 6 days): significantly suppressed
B1: N-ABD094-rhArg: albumin binding domain ABD094 fused N-terminally to recombinant human arginase I, SEQ ID NO: 50 (protein)
chain: MHHHHHHDEAVDANSLAEAKEAANAELDSYGVSDFYKRLIDKAKTVEGVEALKDAILAALPSGSNNNNNNGSGGMSAKSRTIGIIGAPFSKGQPRGGVEEGPTVLRKAGLLEKLKEQECDVKDYGDLPFADIPNDSPFQIVKNPRSVGKASEQLAGKVAEVKKNGRISLVLGGDHSLAIGSISGHARVHPDLGVIWVDAHTDINTPLTTTSGNLHGQPVSFLLKELKGKIPDVPGFSWVTPCISAKDIVYIGLRDVDPGEHYILKTLGIKYFSMTEVDRLGIGKVMEETLSYLLGRKKRPIHLSFDVDGLDPSFTPATGTPVVGGLTYREGLYITEEIYKTGLLSGLDIMEVNPSLGKTPEEVTRTVNTAVAITLACFGLAREGNHKPIDYLNPPK
modifications: Mn2+; N-ABD094-rhArg, Synthesized in the Lab
- adipogenesis and lipogenesis in 3T3-L1 cells (oil red O) (added to culture medium, 6 days of differentiation): effectively inhibit
